Experiment: soluble on expression in E. coli; label from the status in PepcDB or PDB records

Sequence | soluble on expression in E. coli
MDINQNYREAVKTIKEAILRSQYRAATSVNKEQLSLYYGIGRYVSKNSRIGFWGKGAIEQISSLLQKELPGLRGFSTSNIKNMRVFYEEWEPVLNRQPLAGDLVLDEKLLLSVIRQPLADEFNWSDFFSIGFSHHTEIISKAKTLEARLFYIHECAIRYWSKYTLRDYLKADLYSHRGTLPNNFAQTLPDTKQALKAVCSFKDEYLLDFINVEELDEQEEDLDEKIVEKSIVANVKKFIMTFGQDFSFIGNQYRVEVAGEEMFIDLLFFNRELNSLVAVELKSGKFRSSYLGQLNTYLSALDSYVRKPHENPSIGIILCREMNQTFVEFAVRDYNKPMGVATYRTSKDMPERLRNALPDIEELRKLL | not soluble
MKTRHYSLLIFLAGSAFFPEISAQLANCQNLGTPINSTDCLCPGFVDGRLCENIKCQRWAVPDKNRCACAPGWYDRYCGLRGCRPPNEEQMDLEKRSFIIVFNTKTTMKMQLDSLKNNFKEMISKVSKNSKGVVNNWIENYIVYGFVESQSHTKIQKLFTENPDDVISFFNNMTLFDGDDTQPVLTAIQNAQQTYPKMQAHALVLVFTDSPASDATAWSHRFTDKNAEQSVLQISLIWRSKYSFFLSLPARTNFLSNGVDVYRRLSLTNHGDTFFIKDSNDLSNALLNVIGVQYFPENVQIGYGKTTDEQLQTYVDNDGDLVYILLTIRSSLQTTVPSISEATIVAEGDSYRLYSPASNIGDTVTIHCQNGTTYNYRMFIQSKNTLLFNYNDDMHIDVGNGMAVIGAKSIFLGTKNSANRDHNAHDLSGNANELTTNVSKNNTDTCSKKNLDSINDPRLQEPRQFIFILEQHSGNEQVYKTLAREINDILELVNSSTTSEYKKEFTLIAHDSAESHVLFSSYNPKIFAEKFSKLVNSLELTDNLDNTMGLLSIIHAQKMNILPTALVYYFTNQAVKNAQNLTRNWDLVKRDIEINFLTIADGVTTEIFALPKQLELVQKMTNGRLIPLGKTENSIFPIFKDMMTVTTLTTDNEQYNCHDTALEIDGYFEDGASVSISNYVTYKNPNFMSIRIDSKLFASGKWKLSALSTTGGCQITVRQKTSVGLVLGFTAATNDDNASTQIISQRSSSDSQPIFTTLKTTNHIVPTDLEIQIVNRQRYDQPVSYVKLGNAQRDTNSCSYDFISDSVVVPKSTLTMWIVSATDNAGKLILHRIFYYYLPRILSEFAVVLQGFMEIFVKLCSCSPPTLLQCLQYRPLQSQHK | not soluble
MTMDKSELVQKAKLAEQAERYDDMAAAMKAVTEQGHELSNEERNLLSVAYKNVVGARRSSWRVISSIEQKTERNEKKQQMGKEYREKIEAELQDICNDVLELLDKYLIPNATQPESKVFYLKMKGDYFRYLSEVASGDNKQTTVSNSQQAYQEAFEISKKEMQPTHPIRLGLALNFSVFYYEILNSPEKACSLAKTAFDEAIAELDTLNEESYKDSTLIMQLLRDNLTLWTSENQGDEGENLYFQ | soluble
SSAEAGGGIRKRHRTKFTAEQKERMLALAERIGWRIQRQDDEVIQRFCQETGVPRQVLKVWLHNNKH | soluble
MGSDKIHHHHHHMEGKVDVLLTWLKKSDKFYIAPNISICESPETGRGIVLSHGSIRKNDIIVSVPSSKQLNFHTILYHISKFNKELNIPGITIDRKPINYEDNIIEAENKAWADPRYGLYSELSKEFLLSLSSFQLVSFYILVENFLLPKWTHNEIYSDWKPFFDVWPSMEELRSIPAIWNCDPNSRYHSLIEYLPAASRKHMARISGLVREDWETISEVVLKWNEIYGSLSCTKNSDKFTSDELFSLFVHVYFIINSRCLYAKIPLKIEDSPSNFTLVPYVDFMNHICESDLHCYPQLSPQLRSEGENIIGIGQFTIRCGDHLYDNINEELFLNYGAHSNDFLLNEYGFVVDGNKWNYLDISDEIIELIDDDKKEVKTFLLEHDYWGDYTINETDISYRIFVALNYYVTRDERRVRKFIEGYISEDYFKPKISSVLKELLVSLTAKYTKTLSELTEKVSNLENNLCLQNLITIYKGYIKILTQHLQDLQS | not soluble
MGSDKIHHHHHHMKMNIPVIFQFLKDLSANNNREWFNEHRSEYEVARAEFDNFLATVIARISLFDETIRGIQPKDCTYRIYRDTRFSADKTPYKIHFGGYINAKGKKSDHCGYYVHLQPDGSMLAGGSLCLPPNVLKAVRQAIYDNVEEYISIVEDPEFKKYFPVVGEDFMKTAPKGFPKDFKYIDYLKCRQFVCSYLVPDDFFTRADMMEQIEKAFRQFKRFADFINYTIDDFE | not soluble
MSTENTLSVADLARENVRNLVPYQSARRLGGNGDVWLNANEFPTAVEFQLTQQTLNRYPECQPKAVIENYAQYAGVKPEQVLVSRGADEGIELVIRAFCEPGKDAILYCPPTYGMYSVSAETIGVERRTVPALENWQLDLQGISDNLDGTKVVFVCSPNNPTGQLINPQDLRTLLELTRGKAIVVADEAYIEFCPQATLTGWLVEYPHLVILRTLSKAFALAGLRCGFTLANEEVINLLLKVIAPYPLSTPVADIAAQALCPQGINAMRDRVAQTVQERQYLVNALQQTACVEHVFDSETNYILARFTASSSVFKSLWDQGIILRDQNKQPSLSGCLRITVGTRQENQRVIDALRAEPV | not soluble
MAHHHHHHMNWCLSRRWRFRLELLSASLLSRVHIGCHAEPRNNMSTTPAKNELASVHESIQITLSKIQEDSAKRSSQEQQLISSVASAKCLAGIFSAHSPTNDEVVRALKSAGEEEQVEAECLQRYQQFVEAKKRCFTSVEADLRSVSKVLSGVLAASEKVEEPTSGDCRAEVQENQCDGELLHLLRLWRTVVCLHDLVLGSLIKRGSDGSPCELQRFSAGEERSYVRESALRNTVADTEKMLLAIRKRWRDLTEEAEAVRATAESMTPLPFSDEATLLIADEKDEPLVASINQGLHELQQSSDRLRKKKVAVDEGAAALLEKVRNLSLQTAACRCSVEAFSQRSREAADDANSLMSAKARALQELHRKAQECASEQGLLDRDVGSYKQLCALLVEWAENEKSEAERIVAAEQEYHSLVSKERAQQEKLRCLRLSIKNLESEVRDASTEKQRIVGEVQYLSKLVSNPTVVTQVLARASEECHPEREVTALHNYLRFVQKARLERHTSHE | not soluble
MARIGIRYAEYSAMTVLRYLQAYPPHLQAQVRQMIDSDRLGEYLQRRYPDRHDVQSDKALYGYAQDLRQQYLRSAPNLDKVLFDSRLDLTHRALGLNTAVSRVQGGKLKAKKEIRIASLFKEAAPQFLRMIVVHELAHLRERDHNKAFYQLCQHMEPDYHQLEFDLRVYLTYRELPGNLLEHHHHHH | not soluble
DKDVLEVKLDKKEYKAGETATALIQSPYADAELYFAVIKDKPIYQQITKVQGSAPQIQFRVTPEMLPNAAVEAVLVRQGKPINQVEVGSLDNLVKIGFTPFKVNLEDKYLKLQVKPAQASLEPGAEETIQLEVKDNQGNPTKGQLTVMVVNEAVLQLSGY | not soluble
MRKSRLSRYKQNKLIELFVAGVTARTATEPDSIVYTDCYRRYDVLDAGEFSHFRINHSTHFAERQNHINGIGNFWNRAKRHLRKFDGIPKEHFEPYLKECERRFLEHHHHHH | soluble
GEDFFFVVMRDISSKKILEREFSMNEQLFKDLFDRAVDGIVLFDKDGGFIDANLSFCKSFEINHNELSHLSLYEFIDSGSRKDFDNIWKALNRKGKAKGELPVKLRSGVQKLFEFTITSNII | not soluble
HPHVENFTIIGSGFQAETQLEGMITVSHPQSIRVYSRNYDHAKDFASRMSKQFGVDIRPVDNAEAALSDADTVSSITNSTSPVILRKYLGDEYHVNLAGSNYMNRREAEYEVLHDADLVVTEHYDQSMVESAEISEYVKFGGKPVELREIAGRYGEFSGLRRTVFKSMGIGLEDIATAYRVLRNLGIA | not soluble
MGSDKIHHHHHHMTAYNNNAIYFKNIASGSKGNSTFIWDAHDLIVIDFGITMKKFKEAISELTLGGLNKSIFISHEHADHVSGIRSVKKVDGADVYTRPATAEAANIKAYEIDNEVVIGNFEILAFDVPHDAADPVAFTVKWKDLKISVVSDLGTVTENVISNIRDSDILAFESNHDVSMLKTGRYPASLKRRILSQHGHLSNEQSAEAISKAINESTEIVLTHLSQENNKPEIALNEVKSYLKNRDIKYKDVECADQYVGSSLKSLKT | not soluble
GNNMYKLSENNHKSLLENLKRRGIIDDDDVYNTMLQVDRGKYIKEIPYIDTPVYISHGVTISAPHMHALSLKRLINVLKPGSRAIDVGSGSGYLTVCMAIKMNVLENKNSYVIGLERVKDLVNFSLENIKRDKPELLKIDNFKIIHKNIYQVNEEEKKELGLFDAIHVGASASELPEILVDLLAENGKLIIPIEEDYTQVLYEITKKNGKIIKDRLFDVCFVSLKKN | soluble
MGSDKIHHHHHHMAPDLASLQRISGDSAIDQWLQVPGSWVEEPNERRGGASGVQRVYTGDGRLLYRKQQTGHVYRDWQRPFGYPTAMRERDALRAFESLGIRVPRLVYSGCRKVDGQWQALLVTEALEGFSSLDECYARGDQDRWGEAKHQRILQQIGATIARMNLAHWQHGCLYPKHIFVRVEGEAIEVALIDLEKSRRRLTVNKASQHDLKQLKRRSSWTGAQWQAFIYGYQTAFGSAIKGLQT | not soluble
MPTVRLADGDLNYSLEGPAGAPVLLLSNSLGTDLGMWDTQIPALTAHFRVLRYDTRGHGASLVTPGPYAIGQLGADVLALLDALELPRVHFCGLSMGGLIGQWLGIHAGERLGRLVLCNTAAKIASDEVWNTRIDTVLKGGEQAMRDLRDASVARWFTAGFAEREPAQVERIVAMLAATSPQGYAANCAAVRDADFREQLGLVQAPTLIVAGSHDAVTTPDNARFMQARIADAQLVEFAAAHLSNVEAGDAFSRRLVDFLL | not soluble
MSLHPHLNANLEGGVLTLAINRPEAKNALYGELYLWIAKALDEADQNKDVRVVVLRGAEHDFTAGNDMKDFMGFVQNPNAGPAGQVPPFVLLKSAARLSKPLIIAVKGVAIGIGVTILLQADLVFADNTALFQIPFVSLGLSPEGGASQLLVKQAGYHKAAELLFTAKKFNAETALQAGLVNEIVEDAYATAQATAQHLTALPLASLKQTKALMKHDLDQIIECIDHEAEIFMQRVQSPEMLEAVQAFMQKRQPDFSQEGHHHHHH | soluble
MAQTQLSYKNKTYQISYEILGDLSLPQILILHGWGADKKLMKQSFCPFLKDFCQIYMDLAGFGNSSVEEILNTQDYANITELFLKQKKLNVCFFMGHSFGGKVSTLLAKEKDTLILLSSAGILAKKSLKVRFKIRIFKILKLFGLGKFYRYFASKDGANLSPIMYETFKKVVDEDFSEIFAKQKAKSLIFWGKSDEATPLYCGEKMHQFLKNSTFYPLEGDHFFFLKHSAFIAQKIKEI | not soluble
MGSDKIHHHHHHMNDPLDPLPSLNALRAFEAASRHLNFRLAAGELGVTQGAVAQHVRGLESSIGLVLFERRPRALVLTENGRSYAASVRRAFDLLVEATQALRPQPLQLTISVTPTFAAKWLIPRLQDFTAAHPEIDLRIIATDRLSHFQTDAIDLAVRYGQPPFGVGLNAECLFESVLVAVGSPRLANELRSSGAARFFARYPLLHDAHNQWPPFLQEVLKQSAAIGEKNIRFNQTSLAIDAAMAGQGIALAPFAFVGRAIAMGGLSRIFDVELRTGSGFYVVTPRRLRHPGPVAAVRGWLLKQGREQMCD | not soluble
MSEEKQTVEQNETEEQEIIEEQAAADEQQEETNESELLQNQINELQGLLEEKENKLLRVQADFENYKRRSRLEMEASQKYRSQNIVTDLLPALDSFERALQVEADNEQTKSLLQGMEMVHRQLVEALKKEGVEAIEAVGQEFDPNLHQAVMQAEDENYGSNIVVEEMQKGYKLKDRVIRPSMVKVNQ | not soluble
MSLKRALAALVLLGAVAQAQTGHAGHSVGSVSTGVSMPAMSKQMVSALGPLRGRAFDIKFAQLMMDHHQMALDMAGQELSSGKNAQVRAAAKKVVAAQQQEIALMTGWLRKWTGKVYVPQTLPMVLTGTVNTDRWFLTEMLPHHQGAVDMSKLAAGRSGSSEVKKLALSIIRSQTAEMNTYRQLLKTVKEGHHHHHH | soluble

— the DeepSol protein solubility set
